Data on 2 molecules can be found in publication PMC2871789, “Characterization of the Interaction and Cross-Regulation of Three Mycobacterium tuberculosis RelBE Modules” (PLoS ONE, 2010).

The target in test [1] is T1, GST-RelE (Rv1246c), purified (M. tuberculosis, UniProt O50461 1-97).
T1 construct: the methods state the opposite tagging; also called GST-tagged RelE; pGEX-1246c
T1 sequence: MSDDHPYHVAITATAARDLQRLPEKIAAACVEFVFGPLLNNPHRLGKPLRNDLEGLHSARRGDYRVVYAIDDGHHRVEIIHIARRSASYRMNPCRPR
The test is described as follows: pull-down. Conditions: both partners purified.

The target of test [2] is T2, 6xHis-RelF (Rv2865), purified (M. tuberculosis, UniProt O33347 1-93).
T2 construct: also called his-tagged RelF; pET-2865; not shown: His6, N-terminal, kept
T2 sequence: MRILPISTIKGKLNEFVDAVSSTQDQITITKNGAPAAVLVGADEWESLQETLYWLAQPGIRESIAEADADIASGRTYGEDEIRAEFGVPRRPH
The test is described as follows: pull-down. The following applies: both partners purified.

B1: 6xHis-RelB (Rv1247c), purified (natural protein)
chain: MAVVPLGEVRNRLSEYVAEVELTHERITITRHGHPAAVLISADDLASIEETLEVLRTPGASEAIREGLADVAAGRFVSNDEIRNRYTAR
notes: also called his-tagged RelB; histidine-tagged RelB; not shown: His6, N-terminal, kept
As for B1, the binding result in test [1] is given as “binds”.

B2: GST-RelG (Rv2866), purified (natural protein)
chain: MPYTVRFTTTARRDLHKLPPRILAAVVEFAFGDLSREPLRVGKPLRRELAGTFSARRGTYRLLYRIDDEHTTVVILRVDHRADIYRR
notes: also called GST-tagged RelG; pGEX-2866
Consider B2, for which the binding result in test [2] is “binds”.
